# Test results from the supplement of paper PMC9170038.
# Tested on: K4 kissing-loop RNA reporter
# Assay: apparent KD of K4 kissing-loop reporter; higher = weaker reporter binding
# Settings: Eterna round: R107; input ligand: arginine 13.2 mM
# Method: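 RNA-MaP round R107: designed RNA switches with theophylline, tryptophan, arginine or FMN aptamers are transcribed on-chip within common flanks. They are titrated with a labelled K4 kissing-loop RNA reporter in RNA-MaP buffer (100 mM Tris pH 7.5, 80 mM KCl, 4 mM MgCl2), without ligand or with the indicated ligand. Median apparent KD per design.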
# 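Further: bound reporter read as fluorescence of individual clusters on recovered sequencing chips by microscopy, with normalized cluster intensities fitted with a binding model.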
row,Sequence,apparent KD of K4 kissing-loop reporter [µM]
1,GCCGUACGCACGGAUACCAGCACUCGGUGAGUGAUGUUCACGGUGUGGUAUUCACCGGGCUGCCCUUGGCAGCCGUGCGUACGGC,0.301
2,UGUCAUUGGUCGGCCGCCACUUCGUGUGGAGUGAUGUUUUGUAGGACGGAUCGAAAGAUCUGUCGAAGGACCGGGACCGAUGACU [FiskerMod 19 - Jieux - Same State - Tryptophan B],0.0858
3,AAUGUACAGGGAAGGAGCGUCGUCCAGUGAUGUUGGAGUUAAAUACCAGUGAUGUUGGUUAGGCAGGUAGGUCGCCCUAAAGUAU [#08 K4 Arginine B Exclusion],0.0715
4,GUGUGUGUCGGAGGAUAUGCGAUAGAUGUAGGAGAAUUAGUGAUGUUAGUUAUGGUAGAGAUAGGAGUAGAAGGUUGGUGUGUGU [RHig 3/7 B],0.413
5,GCCCUUCAGGUCGGAGUGAUGUUCCAAUGGAAGGAUAUCCGGGCUCGGAGAAGGUCCAAUUGUGUCUUGUUAAGGUGCUCACUAC [theeternabot_sameState_KL_FMN_A_46],0.221
6,GCCCACAUUAGUGAUACCAGUGGGCACUCACCAGUUCAGUGAUGUUGGACGCAGUGUGGUCACCCUUGGCAGCACCGAUGCCCUU [theeternabot_sameState_KL_Theo_B_32],0.128
7,UGUGUUGUUUUGAUGUUUGUUGUAAGUUGGCAGGAUAUCGUAGAGGCGAGAAGGGCUUUUAUGCGUUAUGAGUGAUGUUUGUAGG [ggbgzmullin],0.241
8,GACACUCGGUGAUAAUAACCGUUACGCGAUACCAGCGUAACAGUACGCCCUUGGCAGCGCAGUGAUGUUGCGUGCCGAGUGUGAA [Theo A Ex Mod of Esbiceve],0.17
9,GUAGCUUGGCUAGGAUAUUAGCGUAGGAGUGAUGUUCCGACUAGCGAAAGCUAGUCUCACGCUAGUUAAGAAGGAGCCAAGCUAC,0.172
10,AGUGAUGUGGGAAGGAGCGCUACAUGACUUCAGUGAUGUUGAAGUGAUGAUUUAGUGAUGUAGCAGGUAGGUCGCCUAGAUGUUA [KL-XARG-B8],0.0412
11,AAGUGAUGUUGUAGUGAUGUUGUGAUGUUGCAGGAUAUAUAGUGAUGUAGAAGGGUAUGUACUGAUUUUUUUUUUGAGUGAUGUU [awaqmullin],0.043
12,UUAUAUAAUUAGUCUUUUUUAACAUUAAGUCAGGAUAUCGUAUAUUCGAGAAGGGACACAUGCUAGUGAUGUUAGCUAUUUCUUU [JR_ExcFMNA_Sub017],0.0547
13,GGUUGCAGCCCUGCAUCGUGGGUUUAGAGUAAGGAUAUUCGCCAAGGAAGAAGGUACUCUGCAUUGAGUGAUGUUCAAUAAGAUG [theeternabot_sameState_KL_FMN_A_30],0.176
14,CCUAUCUCAUACGAUACCAGUCAACGAUAUUUUAUCGAUGCCAUCACCGAGUGAUGUUCGGACCCUUGGCAGCGUAUGGGAUAGG [Ex Theophylline B K4 4],0.244
15,AGUGAUGUUGAGUUAUCUUAGUGAAGUGAUCGAGGACCGGUACGGCCGCCACUCGAGUGAUGAGUGAGUGAUGUUUGUUUAGUGA [zzymullin],0.431
16,GGGAGUAGUGCGGCCGCCACUGUGAAAGAAGAAGAAUAUAGUGAUGUUAUAUAGGAAUAAAAGAAUAGGACCGGGCAUUAGAUUU [SSTRyptB.R],0.231
17,GUUCCCUACAAGGAUACCAGAACGUGUAGUCCGAGCGCUAGUGAUGUUGGCGUCUACCUCUUCCCUUGGCAGCCUGCAAAUCAGU [theeternabot_sameState_KL_Theo_B_48],0.155
18,AGCCUAGGAGUCAUUUCCUGCCCGUACGAUACCAGCAUUACCAGUUGCCCUUGGCAGCGUUAUAAGGCCAGUGAUGUUGGCCACU [theeternabot_sameState_KL_Theo_A_22],0.175
19,UGAUAAAGCAGUGAUGUUGCAAGAAAUGAUACCAGUUAAGAAAAGAACCCUUGGCAGCAUAAAGUGCGCUCUAAUGAGUGUGCUU [theophylline a same state],0.183
20,GGUAUCUAUACAGAUACCAGUCGUACAGCACCAUUACAGGUUAGUGAUGUUAACCUGUACGACCCUUGGCAGCUGUAUAAUAAUA [Theo B Ex t2a],0.0854
21,ACGUAGUUCUAGGAUACCAGCCAAAUAGCCAGGACGAGAGUCCUGGCUGCCAGUGAUGUUGGCCCUUGGCAGCCUAGAUCUUCUU [zmodel 1],0.136
22,UGAUACCAGACGGCCGCCACUUCCGUAAGUCAAAGACUUACCAAGAGAAUCGUCCAGUGAUGUUGGAGGACCGGGUCUGGUAUCU [FiskerMod 7 - Jieux - Exclusion - Tryptophan B],0.654
23,GCAAAACGCAGUGAUGUUGCGAUCUCGGAAGGAGCGCGUGAAAACGCAGGUAGGUCGCCGAGUCAGUGAGUAUCUCGCUGUUUGC [Arginine A K4 19],0.352
24,UGAAAUCGAAUUCCGCGUGCAACGCCAGUAAAGGAUAUCAUCACACUGAGAAGGUUACGAAGCGGAGUGAUGUUCCGCUCUAUCC [theeternabot_sameState_KL_FMN_A_50],0.112

# Same assay, conditions: Eterna round: R107; input ligand: none
row,Sequence,apparent KD of K4 kissing-loop reporter [µM]
1,UGACGUUUGGGAAGGAGCGGAAUGUAAUACGGAAUGCGUGGAGAUGCAGUGAUGUUGCAGAUCCAGGUAGGUCGCCCAAGGGACG [Soanina],0.0912
2,UGUGUUGUUGUGAUGUUUGGUGUUGUAGGGCAGGAUAUCGUAGAGGCGAGAAGGGCUUUUGUGCGGUAUGAGUGAUGUUUGUAGG [svvsmullin],0.16
3,UUUAUUAAGACGGCCGCCACUGAAUCAUAGUGAUGUUAUGAUAAAAUUUUAGAUAAUAAUAACAGCAGGACCGGGUCAAUUAUUA [JR_SSTryptoB_Sub015],0.208
4,CCUAUCUCAUACGAUACCAGUCGUCGAGUGAUGUUCGAUUAAAUAAAUUUGCCAAAUAACGACCCUUGGCAGCGUAUGGGAUAGG [Ex Theophylline B K4 16],0.318
5,CACGAUGAAUUCUCUAGGAGUGAUGUUUUUCGAGGACCGGUACGGCCGCCACUCGGACCACGAGCGUGGUAGCGGCGAAAAGACU [qpmullin],0.629
6,AAACAUUGGUCGGAUACCAGCUUGAUCGGAAACGAUCUGCUGGAGUGAUGUUCCAAGUAAAGCCCUUGGCAGCCGACCGAUGAAA [MAT - Same State Theophlline B - Mod of Eli - D17],0.0556
7,UGAUACCAGACGGCCGCCACUCCCGUAAGUCAAAGACUUACGAAGAGUAUCGUCCAGUGAUGUUGGAGGACCGGGUCUGGUAUCU [FiskerMod 10 - Jieux - Exclusion - Tryptophan B],0.338
8,UACUUAUAGUUAUUUCUACAUUUAUUUAGUCAGGAUAUCGAUUAGUCGAGAAGGGACAAUAUCAAGUGAUGUUUGAUAAUUCAAA [JR_ExcFMNA_Sub012],0.119
9,GCCGUACGCACGGAUACCAGCACUCGGUGAGUGAUGUUCACGGUGUGGUAUUCACCGGGCUGCCCUUGGCAGCCGUGCGUACGGC,0.343
10,UGUCAUUGGUCGGCCGCCACUUCGUGUGGAGUGAUGUUUUGUAGGACGGAUCGAAAGAUCUGUCGAAGGACCGGGACCGAUGACU [FiskerMod 19 - Jieux - Same State - Tryptophan B],0.0876
11,AAUGUACAGGGAAGGAGCGUCGUCCAGUGAUGUUGGAGUUAAAUACCAGUGAUGUUGGUUAGGCAGGUAGGUCGCCCUAAAGUAU [#08 K4 Arginine B Exclusion],0.0869
12,GUGUGUGUCGGAGGAUAUGCGAUAGAUGUAGGAGAAUUAGUGAUGUUAGUUAUGGUAGAGAUAGGAGUAGAAGGUUGGUGUGUGU [RHig 3/7 B],0.484
13,GCCCUUCAGGUCGGAGUGAUGUUCCAAUGGAAGGAUAUCCGGGCUCGGAGAAGGUCCAAUUGUGUCUUGUUAAGGUGCUCACUAC [theeternabot_sameState_KL_FMN_A_46],0.215
14,GCCCACAUUAGUGAUACCAGUGGGCACUCACCAGUUCAGUGAUGUUGGACGCAGUGUGGUCACCCUUGGCAGCACCGAUGCCCUU [theeternabot_sameState_KL_Theo_B_32],0.122
15,UGUGUUGUUUUGAUGUUUGUUGUAAGUUGGCAGGAUAUCGUAGAGGCGAGAAGGGCUUUUAUGCGUUAUGAGUGAUGUUUGUAGG [ggbgzmullin],0.357
16,GACACUCGGUGAUAAUAACCGUUACGCGAUACCAGCGUAACAGUACGCCCUUGGCAGCGCAGUGAUGUUGCGUGCCGAGUGUGAA [Theo A Ex Mod of Esbiceve],0.172
